Measurements published in PMC5339904.

How the values were obtained:
[1] = molecular target: GCN4 leucine zipper fused to the β-lactamase fragments N-BLa and C-BLa; experiment: split reporter (BiFC, NanoBiT); split β-lactamase; soluble N-BLa and C-BLa fusions co-expressed in the E. coli periplasm; read-out: ampicillin LD50 in liquid media by optical density
GpA0 G83I = experiment: BLaTM 1.2 (split β-lactamase complementation, ampicillin resistance); conditions: E. coli JM83, 133 μM arabinose, n = 3, read off a plot
[2] = molecular target: glycophorin A transmembrane domain G83I mutant, frame GpA+1, in BLaTM hybrid proteins; experiment: split reporter (BiFC, NanoBiT); BLaTM 1.2 (ompA signal) in E. coli JM83; 133 μM arabinose plus 0.3 mM IPTG; ampicillin LD50 given relative to wild-type GpA+1 (=100%); library pairs first selected on ampicillin, then measured one by one; labels are N-BLa/C-BLa
[3] = molecular target: glycophorin A transmembrane domain G83I mutant, frame GpA+1, in BLaTM hybrid proteins; experiment: BLaTM 1.1 (split β-lactamase complementation, ampicillin resistance); conditions: E. coli BL21; n = 4 separate transformations; parent: est. 160 µg/ml; read off a plot
[4] = molecular target: glycophorin A transmembrane domain G83I mutant, frame GpA+1, in BLaTM hybrid proteins; experiment: BLaTM 1.2 (split β-lactamase complementation, ampicillin resistance); conditions: E. coli JM83, 133 μM arabinose, n = 3, read off a plot
[5] = molecular target: quiescin sulfhydryl oxidase 2 transmembrane domain S8A mutant, in BLaTM hybrid proteins; experiment: BLaTM 1.1 (split β-lactamase complementation, ampicillin resistance); conditions: E. coli BL21; n = 4 separate transformations; parent: est. 80 µg/ml; read off a plot

GCN4 leucine zipper fused to the β-lactamase fragments N-BLa and C-BLa, sequence (P03069 whole entry, the tested form may be a part): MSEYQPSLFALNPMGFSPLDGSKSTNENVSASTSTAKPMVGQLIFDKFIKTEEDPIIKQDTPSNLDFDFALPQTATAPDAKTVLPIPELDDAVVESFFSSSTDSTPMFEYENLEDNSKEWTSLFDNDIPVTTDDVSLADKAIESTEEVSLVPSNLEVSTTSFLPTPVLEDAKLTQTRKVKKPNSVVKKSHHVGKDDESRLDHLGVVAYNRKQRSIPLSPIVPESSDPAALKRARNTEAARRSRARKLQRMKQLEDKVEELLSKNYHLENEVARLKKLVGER

## GCN4 leucine zipper fused to the β-lactamase fragments N-BLa and C-BLa
[1]
  fold rise of the ampicillin LD50 on co-expression of both fragments: 40 fold

## GpA0 wt G83I
GpA0 G83I; 0.1 mM IPTG, parent: est. 230 µg/ml
  other: LD50 c(Amp): 150 µg/mL
GpA0 G83I; 0.2 mM IPTG, parent: est. 99 µg/ml
  other: LD50 c(Amp): 73 µg/mL
GpA0 G83I; 0.3 mM IPTG, parent: est. 80 µg/ml
  other: LD50 c(Amp): 52 µg/mL
GpA0 G83I; 0.4 mM IPTG, parent: est. 61 µg/ml
  other: LD50 c(Amp): 38 µg/mL
GpA0 G83I; 0.7 mM IPTG, parent: est. 30 µg/ml
  other: LD50 c(Amp): 24 µg/mL

## glycophorin A transmembrane domain G83I mutant, frame GpA+1, in BLaTM hybrid proteins (domain or fragment)
[2]
  LD50 in % of GpA+1 wt (% (GpA+1 wt = 100%)): 29

## glycophorin A transmembrane domain, wild type, frame GpA+1, in BLaTM hybrid proteins G83I
[3]
  other: LD50 c(Amp): 16 µg/mL
[4]; 0.1 mM IPTG
  other: LD50 c(Amp): 120 µg/mL
[4]; 0.2 mM IPTG
  other: LD50 c(Amp): 70 µg/mL
[4]; 0.3 mM IPTG, parent: est. 270 µg/ml
  other: LD50 c(Amp): 65 µg/mL
[4]; 0.4 mM IPTG, parent: est. 140 µg/ml
  other: LD50 c(Amp): 43 µg/mL
[4]; 0.5 mM IPTG, parent: est. 100 µg/ml
  other: LD50 c(Amp): 32 µg/mL
[4]; 0.7 mM IPTG, parent: est. 62 µg/ml
  other: LD50 c(Amp): 27 µg/mL

## quiescin sulfhydryl oxidase 2 transmembrane domain, wild type, in BLaTM hybrid proteins S8A
[5]
  other: LD50 c(Amp): 38 µg/mL
